The experiment has as its target T1, HDA15-GST (Arabidopsis, UniProt Q8GXJ1 1-552).
T1 sequence (looked up): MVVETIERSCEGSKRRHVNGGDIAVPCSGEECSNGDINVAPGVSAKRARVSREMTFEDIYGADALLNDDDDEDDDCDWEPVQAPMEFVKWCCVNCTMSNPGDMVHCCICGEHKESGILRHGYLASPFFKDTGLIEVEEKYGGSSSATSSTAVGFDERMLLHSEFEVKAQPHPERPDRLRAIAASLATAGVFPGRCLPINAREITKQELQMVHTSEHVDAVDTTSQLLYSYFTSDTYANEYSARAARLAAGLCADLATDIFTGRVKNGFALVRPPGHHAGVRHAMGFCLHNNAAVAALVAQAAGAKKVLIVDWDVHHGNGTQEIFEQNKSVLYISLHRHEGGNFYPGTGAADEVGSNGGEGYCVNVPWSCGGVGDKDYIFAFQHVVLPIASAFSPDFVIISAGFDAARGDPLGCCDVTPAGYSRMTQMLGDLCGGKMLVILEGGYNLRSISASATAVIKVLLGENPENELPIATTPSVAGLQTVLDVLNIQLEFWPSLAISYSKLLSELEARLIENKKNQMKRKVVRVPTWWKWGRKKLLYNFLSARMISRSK
Put plainly: pull-down.

B1: PIF1-His (natural protein, Arabidopsis, UniProt Q8GZM7 1-478, looked up)
chain: MHHFVPDFDTDDDYVNNHNSSLNHLPRKSITTMGEDDDLMELLWQNGQVVVQNQRLHTKKPSSSPPKLLPSMDPQQQPSSDQNLFIQEDEMTSWLHYPLRDDDFCSDLLFSAAPTATATATVSQVTAARPPVSSTNESRPPVRNFMNFSRLRGDFNNGRGGESGPLLSKAVVRESTQVSPSATPSAAASESGLTRRTDGTDSSAVAGGGAYNRKGKAVAMTAPAIEITGTSSSVVSKSEIEPEKTNVDDRKRKEREATTTDETESRSEETKQARVSTTSTKRSRAAEVHNLSERKRRDRINERMKALQELIPRCNKSDKASMLDEAIEYMKSLQLQIQMMSMGCGMMPMMYPGMQQYMPHMAMGMGMNQPIPPPSFMPFPNMLAAQRPLPTQTHMAGSGPQYPVHASDPSRVFVPNQQYDPTSGQPQYPAGYTDPYQQFRGLHPTQPPQFQNQATSYPSSSRVSSSKESEDHGNHTTG
For the molecule B1, the binding result is “binds”.

For the origin of these results see article PMC5499575 (Nucleic Acids Research, 2017).
